Measured values: patent US20030165468A1, “Regulated vectors for controlling DNA hypermutability in eukaryotic cells” (priority 2002, published 2003)

B1: PMS134: dominant negative mismatch repair protein, expressed from pIRES-PMS134-TK with a C-terminal V5 tag (protein, listed as Homo sapiens)
chain: RGGSGVASMERAESSSTEPAKAIKPIDRKSVHQICSGQVVLSLSTAVKELVENSLDAGATNIDLKLKDYGVDLIEVSDNGCGVEEENFEGLTLKHHTSKIQEFADLTQVETFGFRGEALSSLCALSDVTISTCHASAKVGT
modifications: C-terminal V5 tag

Columns and labels:
[1] = tested on: cells expressing the HSV-TK gene product; test: Negative selection with ganciclovir of cultures containing pIRES-PMS134-TK; type: cell-based, human; conditions: HEK293 cultures with pIRES-PMS134-TK; ganciclovir for 5 days, then 10 days in growth media alone
Experimental: Once a hypermutable cell line is developed, it can be screened for to identify subclones with novel phenotypes for target discovery and/or product development. Once the subclone with a desired phenotype is identified, it is important to be able to restore the DNA stability within the host cell. In order to accomplish this, one must remove or completely suppress the expression of the mutator gene. Briefly, cultures are grown in the presence of the prodrug ganciclovir (Sigma), which kills cells expressing the HSV-TK gene product for 5 days. After 5 days, cells are grown for 10 days in growth media alone at which time greater than 95% of cells die off. Resistant clones are then picked and expanded in 10 cm petri dishes. Cells are grown for 3 weeks and then a portion is analyzed for PMS134 expression by western blot and RT-PCR. […] Analysis of cells after two months of culture have not observed re-expression of the PMS 134 gene using western or RT-PCR analysis (not shown). […] No de novo instable microsatellites are observed in the GR cells in contrast to the parental IRES-PMS134-TK line as expected.

[2] = tested on: 293 cells; test: Microsatellite instability of endogenous loci using the BAT26 diagnostic marker; type: cell-based, human; conditions: PMS134 expressing 293 cells
Experimental: Next, selected clones expressing PMS134 are expanded and analyzed for MMR deficiency using methods as previously described. Briefly, cells containing the pIRES-PMS134-TK vector or control were measured for microsatellite instability of endogenous loci using the BAT26 diagnostic marker as described (Hoang J. M. et al. (1997) Cancer Res. 57:300-303). Cells are harvested and genomic DNA is isolated using the salting out method (Nicolaides, N. C. et al. (1991) Mol. Cell. Biol. 11:6166-6176). DNAs are diluted by limiting dilution to determine the level of sensitivity of the assay. DNAs are PCR amplified using the BAT26F: 5′-[…]-3′ (SEQ ID NO: 25) and the BAT26R: 5′-[…]-3′ (SEQ ID NO: 26) primers in buffers as described (Nicolaides, N. C. et al. (1995) Genomics 30:195-206). Briefly 1 pg to 100 ngs of DNA is amplified using the following conditions: 94° C. for 30 sec, 58° C. for 30 sec, 72° C. for 30 sec for 30 cycles. PCR reactions are electrophoresed on 12% polyacrylamide TBE gels (Novex) or 4% agarose gels and stained with ethidium bromide.
To measure for microsatellite stability in 293 cells, DNAs were amplified using the reaction conditions above.

Molecule	cells die off [1]	effect on mismatch repair (MMR) ([2]; biochemical and genetic manifestations of MMR deficiency)	microsatellite instability (altered BAT26 alleles) ([2]; no altered alleles in MMR-proficient control cells)
Nc1nc(O)c2ncn(COC(CO)CO)c2n1 [ganciclovir]	greater than 95%	–	–
B1	–	robust dominant negative effect	a number of alterations
